Data as given in publication PMC4366199, “Arfaptin-1 Negatively Regulates Arl1-Mediated Retrograde Transport” (PLoS ONE, 2015).

T1: GST-Arl1QL (Arf-like protein 1, Gln71 to Leu, putative active GTP-bound form) (human, UniProt P40616 1-181, Gln71 to Leu (Arl1QL))
T1 construct: Arf-like protein 1 (Arl1), human; fragment encoding Arl1QL subcloned into pGEX4T via EcoRI; Loaded with GTPγS on the resin; also called active form of Arl1; source: E. coli BL21, immobilized on glutathione-sepharose resin, exchanged for GTPγS
T1 sequence (looked up): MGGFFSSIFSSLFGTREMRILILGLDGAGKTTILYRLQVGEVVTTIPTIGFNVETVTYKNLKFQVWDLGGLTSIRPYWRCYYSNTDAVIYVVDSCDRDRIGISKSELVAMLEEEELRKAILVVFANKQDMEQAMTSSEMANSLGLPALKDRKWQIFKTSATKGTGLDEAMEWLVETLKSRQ

B1: arfaptin-1a (Arf-interacting protein 1, short isoform), endogenous (natural protein, human (endogenous in HeLa), UniProt P53367-2 1-341, looked up)
chain: MAQESPKNSAAEIPVTSNGEVDDSREHSFNRDLKHSLPSGLGLSETQITSHGFDNTKEGVIEAGAFQGGQRTQTKSGPVILADEIKNPAMEKLELVRKWSLNTYKCTRQIISEKLGRGSRTVDLELEAQIDILRDNKKKYENILKLAQTLSTQLFQMVHTQRQLGDAFADLSLKSLELHEEFGYNADTQKLLAKNGETLLGAINFFIASVNTLVNKTIEDTLMTVKQYESARIEYDAYRTDLEELNLGPRDANTLPKIEQSQHLFQAHKEKYDKMRNDVSVKLKFLEENKVKVLHNQLVLFHNAIAAYFAGNQKQLEQTLKQFHIKLKTPGVDAPSWLEEQ
notes: arfaptin-1a, short isoform of arfaptin-1; lacks the insertion (residues 69-100) of arfaptin-1b; also called arfaptin-1a (short form); source: endogenous, HeLa lysate
B2: arfaptin-1b (Arf-interacting protein 1b, long isoform), endogenous (natural protein, human (endogenous in HeLa), UniProt P53367 1-373, looked up)
chain: MAQESPKNSAAEIPVTSNGEVDDSREHSFNRDLKHSLPSGLGLSETQITSHGFDNTKEGVIEAGAFQGSPAPPLPSVMSPSRVAASRLAQQGSDLIVPAGGQRTQTKSGPVILADEIKNPAMEKLELVRKWSLNTYKCTRQIISEKLGRGSRTVDLELEAQIDILRDNKKKYENILKLAQTLSTQLFQMVHTQRQLGDAFADLSLKSLELHEEFGYNADTQKLLAKNGETLLGAINFFIASVNTLVNKTIEDTLMTVKQYESARIEYDAYRTDLEELNLGPRDANTLPKIEQSQHLFQAHKEKYDKMRNDVSVKLKFLEENKVKVLHNQLVLFHNAIAAYFAGNQKQLEQTLKQFHIKLKTPGVDAPSWLEEQ
notes: arfaptin-1b, long isoform of arfaptin-1 with an insertion (residues 69-100) absent from arfaptin-1a; source: endogenous, HeLa lysate

Target: T1, GST-Arl1QL (Arf-like protein 1, Gln71 …)
Assay: pull-down; GST fusion proteins (5 μg) immobilized on glutathione-sepharose, incubated with GTPγS (QL) or GDP (TN); HeLa lysates (2.5 mg), endogenous proteins; 12.5% SDS-PAGE and western blotting
Settings: one partner purified

Binder | fold change of the level bound, against Arf1QL [fold]
B1 | 1.84
B2 | 1.84
